Positions count from the first letter of the chain named.
B1: 561_01_23 (antibody, V domains shown)
VH: QLVQSGGGVRRPGASVKISCETPEYTFTKYWLHWLRQAPGRGLEWMGVVSPHGGRPMFAFEFRDRLTLTRDIHTTTHYMELRGLTSDDTAVYFCARDSFGETFRGHDQPYQMDVWGGGTTVVVSS
VL: EPVLTQSPGTLSLSPGEGATLSCRARQGFSADHVAWFQKKPGRPPRLLIFEASRRASGTPERFSGGGSGPEYTLTITRVEPEDFAVYYCQSYGSITPLVFGGGTRVDVK
B2: 561_03_78 (antibody, V domains shown)
VH: B1 VH with R82G, F93Y, S98P, V121I
VL: B1 VL with G18R, G66S
B3: 561_03_07 (antibody, V domains shown)
VH: B1 VH with Y25D, R41Q, Y78F, R82G, F93Y, S98P, Q111R, V121I
VL: B1 VL with L13V, G66S
B4: 561_02_21 (antibody, V domains shown)
VH: B1 VH with R10K, R41Q, R82G, S86L, F93Y, S98P, H106R, D107E, V121I, S124T
VL: B1 VL with P2A, V3L, G66S
B5: 561_01_29 (antibody, V domains shown)
VH: B1 VH with I18V, V114L
VL: B1 VL with A19V, A52T
B6: 561_02_12 (antibody, V domains shown)
VH: B1 VH with Y25D, R41Q, Y78F, F93Y, S98P, Q111R, V121I
VL: B1 VL with L13V, G66S, P81A
B7: 561_01_21 (antibody, V domains shown)
VH: QRRLFQSGTEVKRPGASVKISCRADDDPYTDDDTFTKYYTHWIRQAPGQRPEWLGVISPHFARPIYSYKFQDRLTLTRDSSLTAVYFELRGLQPDDTGIYFCARDPFGDMYPHYNYHMDVWGGGTTVIVSA
VL: EVVLTQSPAILSVSPGDRVILSCKASEGLSSSDLAWYRFKGGQIPTLVIFGTSTRARGTPDRFSGSGSGTDFTLTISRVEPEDFATYYCQRYGGTPITFGGGTTLDKK
B8: 561_01_54 (antibody, V domains shown)
VH: B7 VH with R2G, G91D, P94S, Y116S
VL: B7 VL with G41S, T52A, T54N, S77N
B9: 561_01_33 (antibody, V domains shown)
VH: B7 VH with R2G, Q71R
VL: B7 VL with T54N, S77N, E80Q
B10: 561_02_27 (antibody, V domains shown)
VH: B7 VH with R2G, F61Y, Q71R
VL: B7 VL with T52A, T54N, S77N
B11: 561_02_10 (antibody, V domains shown)
VH: B7 VH with R2G, Y39H, F61Y, D109N
VL: B7 VL with G41R, T52A, S77N
B12: 561_10_07 (antibody, V domains shown)
VH: QGRFFQSGAEVKRPGASVRISCRADDDPYTDDDTFTKYWTHWIRQAPGQRPEWLGVISPHFARPIYSYKFRDRLTLTRDSSLTAVYLELQGLQPDDSGIYYCARDPFGDRAPHYNYHMDVWGGGTAVIVSS
VL: B7 VL with K24R, S30D, S31P, S32T, D33H, G41R, T54N, G69E, T70A, S77T
B13: 561_02_47 (antibody, V domains shown)
V domain 1: B7 VH with F61Y, V127L
V domain 2: B7 VL with G41S, T52A, T54N, S64A, S77N
B14: 561_02_22 (antibody, V domains shown)
VH: B7 VH with R2G, T9A, Q71R
VL: B7 VL with G51A, T54N, R78K, E80Q
B15: 561_09_23 (antibody, V domains shown)
VH: QAHLFQSGAELKRPGASVRISCRADDDPYTDDDTFTKYYTHWIRQAPGQRPEWLGVISPHFARPIYSYKFQDRLTLTRDSSLTAVYLELRSLRLDDTGIYYCARDPFGERAPHYNYHMDVWGAGTTVIVSS
VL: EVVLTQSPAILSASPGDRVVLSCRASEGLDSSQLAWYRFKDGQIPRLVLFGVSNRARGTPDRFSGGGSGADFTLTISRVEREDFATYYCQRFGATPITFGGGTRLDMN
B16: 561_03_59 (antibody, V domains shown)
VH: B12 VH with G2R, F4L, A9T, R71Q, A84G, Q90K, P94L, Y101F
VL: EVVLTQSPAILSVSPGDRVSFSCRASEGLDTSQLAWYRFKRGQIPTLVIFATSNRARGTPDRFSGSGSGADFTLTINRVEPEDFATYYCQRYGATPITFGGGTTLDKK
B17: 561_09_71 (antibody, V domains shown)
VH: QLAQSGGGVKKPGASVKISCVTPESTFTKYWLHWVRQAPGQGFEWLGVVSPHGGRPMFANKFRDRLTLTRDIHTTTHYMELRGLTSDDTAIYYCARDSFGETFRHSGDQPYQMDVWGGGTNIVVSS
VL: EPVLTQSPGTLSLSPGERATLSCRASQGFSVDHLAWFQKRPGRPPRLLIFETSRRANGSPDRFSGSASGAEYTLTISNVEPEDFAVYYCQSYGSITPLIFGGGTRVDVK
B18: 561_08_52 (antibody, V domains shown)
VH: QLVQWGGGVKRPGASVRISCQCPEDTFTKYYIHWVRQAPGRGLEWLGMVSPHGGRPFHTSEFRDRLTMTRDIHETTHHMVLSGLGVADSGTYFCARDPLGEKSPAYSHHMDVWGGGATVIVSS
VL: AVVLTQSPVTLSVSPGETAILSCRASHGLDTRHVTWFQQKRGQAPRLLIFATYRRASGVSDRFRATDSGSATDFNLTITAVEPADFATYFCQTYGAITPITFGGGTKVDLK
B19: 561_09_89 (antibody, V domains shown)
VH: B18 VH with D71E, A87G
VL: B18 VL with T18S, I20V, Y53S, S68G, F90Y, V108L

Columns and labels:
[1] = molecular target: YU2_(gp140) (foldon trimer) (HIV-1 (strain YU2))
[2] = molecular target: BG505_(SOSIP.664) Env trimer (HIV-1 BG505 (clade A), SOSIP.664 with …, stabilised)

Row | Binder | binding result [1] | binding result [2]
1 | B1 | binds | binds
2 | B2 | binds | binds
3 | B3 | binds | binds
4 | B4 | binds | binds
5 | B5 | binds | binds
6 | B6 | binds | binds
7 | B7 | binds | binds
8 | B8 | binds | binds
9 | B9 | binds | binds
10 | B10 | binds | binds
11 | B11 | binds | binds
12 | B12 | binds | binds
13 | B13 | binds | binds
14 | B14 | binds | binds
15 | B15 | binds | binds
16 | B16 | binds | binds
17 | B17 | binds | binds
18 | B18 | binds | binds
19 | B19 | binds | binds

Source: article PMC7042716 (Cell, 2020)
